# Publication PMC11879689, “Integrative in silico and biochemical analyses demonstrate direct Arl3-mediated ODA16 release from the intraflagellar transport machinery” (The Journal of Biological Chemistry, 2025)
# Like-named read-outs stand apart in the source and are kept apart here.
# T1: full-length CrODA16 (CrODA16fl) (Chlamydomonas reinhardtii, UniProt Q3Y8L7 1-446)
# T1 construct: ODA16, Chlamydomonas reinhardtii, full length (N-terminal domain residues 1-80, C-terminal beta-propeller residues 80-445); it may be the same protein as CrODA16-HT
# T1 sequence (looked up): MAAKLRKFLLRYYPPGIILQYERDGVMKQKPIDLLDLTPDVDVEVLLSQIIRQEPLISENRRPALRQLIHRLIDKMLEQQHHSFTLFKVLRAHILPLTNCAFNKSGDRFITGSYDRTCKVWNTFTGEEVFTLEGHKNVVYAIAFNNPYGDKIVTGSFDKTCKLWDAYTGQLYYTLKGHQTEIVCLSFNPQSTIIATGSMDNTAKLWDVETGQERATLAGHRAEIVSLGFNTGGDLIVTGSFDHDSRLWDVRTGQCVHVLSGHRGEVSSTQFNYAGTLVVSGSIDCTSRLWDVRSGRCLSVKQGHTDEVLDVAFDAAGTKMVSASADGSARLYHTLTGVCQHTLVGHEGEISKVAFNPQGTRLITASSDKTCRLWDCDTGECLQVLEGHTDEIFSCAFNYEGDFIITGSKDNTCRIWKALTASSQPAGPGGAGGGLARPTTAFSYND
# T2: hexa-His-tagged CrODA16 (CrODA16-HT) (Chlamydomonas reinhardtii, UniProt Q3Y8L7 1-446)
# T2 construct: ODA16, Chlamydomonas reinhardtii; Bait on nickel resin
# T2 sequence (looked up): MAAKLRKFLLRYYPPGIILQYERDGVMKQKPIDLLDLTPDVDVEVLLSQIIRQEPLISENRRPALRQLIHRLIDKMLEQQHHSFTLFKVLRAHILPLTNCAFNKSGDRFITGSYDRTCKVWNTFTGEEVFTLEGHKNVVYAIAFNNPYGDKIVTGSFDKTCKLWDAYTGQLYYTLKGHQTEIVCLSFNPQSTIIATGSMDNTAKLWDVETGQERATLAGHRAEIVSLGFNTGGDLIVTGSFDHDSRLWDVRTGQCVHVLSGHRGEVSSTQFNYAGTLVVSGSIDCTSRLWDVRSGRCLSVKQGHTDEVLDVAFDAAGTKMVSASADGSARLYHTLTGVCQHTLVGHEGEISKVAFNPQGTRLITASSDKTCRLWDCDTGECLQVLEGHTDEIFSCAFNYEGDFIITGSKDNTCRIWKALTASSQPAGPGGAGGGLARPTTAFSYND
# How the values were obtained:
# [1] = target: ODA16 (Chlamydomonas reinhardtii) (UniProt Q3Y8L7); assay: ITC; conditions: cited from earlier work
# [2] = target: CrODA16 C-terminal β-propeller, CrODA16C(80-423) (Chlamydomonas reinhardtii) (UniProt Q3Y8L7); assay: ITC; 25 °C, MicroCal iTC200; 10 mM HEPES pH 7.5, 200 mM NaCl, 0.5 mM TCEP; 20 μM CrODA16 in the cell, 200 μM IFT46 peptide or CrIDA3 in the syringe
# [3] = target: T1, full-length CrODA16 (CrODA16fl); assay: as above
# [4] = target: T2, hexa-His-tagged CrODA16 (CrODA16-HT); assay: pull-down; CrODA16-HT immobilised on nickel resin; two preys added together (CrIFT46 with CrIDA3, also at 3:1 excess of CrIFT46; CrIFT46 with CrArl3), beside each prey alone; conditions: both partners purified
# [5] = target: T1, full-length CrODA16 (CrODA16fl); assay: pull-down; competitive binding (titration) assay: GST-tagged bait (10 μM) pre-complexed with CrODA16 (20 μM) on GSH resin, washed, then untagged competitor at rising concentrations, 1 h 4 °C; eluted with 33 mM glutathione, SDS-PAGE; conditions: both partners purified
# [6] = target: T2, hexa-His-tagged CrODA16 (CrODA16-HT); assay: pull-down; CrODA16-HT (10 μM) immobilised on nickel resin, one prey (20–30 μM), 1 h 4 °C; 10 mM HEPES pH 7.5, 200 mM NaCl, 2 mM MgCl2, 1 mM DTT; eluted with 500 mM imidazole, SDS-PAGE; CrArl3 nucleotide-free; conditions: both partners purified
molecule,measurement,setting,value
IFT46 (from UniProt A2T2X4),Kd,[1],200 nM
"CrIDA3 (residues 1-166 and 241-366), untagged (domain or fragment)",Kd,[2],288 nM
same,Kd,[3],1770 nM
same,stoichiometry N,[3],0.996
"RSQVVQNQPHDEEVNLSESESF (peptide, UniProt A2T2X4 23-44, looked up, IFT46, Chlamydomonas reinhardtii, residues 23-44; R23 and F44 mark the ends of the peptide; also called IFT46 peptide; source: synthetic peptide) [CrIFT46(23-44) peptide]",Kd,[3]; both partners purified,1000 ± 380 nM
"CrIFT46 (wild type, untagged) (natural protein, Chlamydomonas reinhardtii, UniProt A2T2X4 1-344, looked up, IFT46, Chlamydomonas reinhardtii; also called WT CrIFT46) MDDSMDYPDRDGDDLDQFQGTARSQVVQNQPHDEEVNLSESESFAGADEPPAAPRDASLIESHDMDEGPAAPARTLSPTGYEAGKHAPGGIANSDEAPPGAYNAQEYKHLNVGEDVRELFSYIGRYKPQTVELDTRIKPFIPDYIPAVGGIDEFIKVPRPDTKPDYLGLKVLDEPAAKQSDPTVLTLQLRQLSKEAPGAKADMVGRLEHTDENKAKKIQQWIASINDIHKAKPAATVNYSKRMPEIEALMQEWPPEVETFLKTMHMPSGDVELDIKTYARLVCTLLDIPVYDDPVESLHVLFTLYLEFKNNPIFRQHMEMENKLDGMSGGGGGMMGGGADVLGL",binding result,[4],binds
same,binding result,[5],binds
"GST-CrIFT46 (natural protein, Chlamydomonas reinhardtii, UniProt A2T2X4 1-344, looked up, IFT46, Chlamydomonas reinhardtii; also called GST-tagged CrIFT46) MDDSMDYPDRDGDDLDQFQGTARSQVVQNQPHDEEVNLSESESFAGADEPPAAPRDASLIESHDMDEGPAAPARTLSPTGYEAGKHAPGGIANSDEAPPGAYNAQEYKHLNVGEDVRELFSYIGRYKPQTVELDTRIKPFIPDYIPAVGGIDEFIKVPRPDTKPDYLGLKVLDEPAAKQSDPTVLTLQLRQLSKEAPGAKADMVGRLEHTDENKAKKIQQWIASINDIHKAKPAATVNYSKRMPEIEALMQEWPPEVETFLKTMHMPSGDVELDIKTYARLVCTLLDIPVYDDPVESLHVLFTLYLEFKNNPIFRQHMEMENKLDGMSGGGGGMMGGGADVLGL",binding result,[5],binds
"CrArl3_Q70L (GTP-locked, full length) (enzyme, Chlamydomonas reinhardtii, UniProt A8ISN6 1-177, looked up, Arl3, Chlamydomonas reinhardtii, with Q70L; codon-optimised synthetic gene; Cloned with C-terminal TEV-His8; Used nucleotide-free or loaded with GTP; also called CrArl3_Q70L-FL) MGLLSLIRGLKKKEGEARILVLGLDNAGKTTILKALSEEDITTITPTQGFNIKSLSRDGFNLKIWDIGGLKSIRPYWRNYFDQTDALIYVIDSADSKRLSESEFELTELLQEEKMTGVPLLVFANKQDLVGALAADEIASTLDLTSIRDRPWQIQACSAKQGTGLKEGMEWMMKQVK",binding result,[6],binds
